Source: the DeepSol protein solubility set

Test: soluble on expression in E. coli; label from the status in PepcDB or PDB records

| Sequence | soluble on expression in E. coli |
| --- | --- |
| MAIYILEDQIIQAKALEVLLTNILHSRNIYNETIHLFSRSDELLQVAHQDAQLNIFFLDIQMNNHIQAGFEVAKEIRKTDSESLIVFISTHTELVLTSYKYMVSALQFIQKNVDFLDFQKEVETCVDAYIQQKENIKTKSEYIIINLKASSIKMDINDIYFFQTEYDHRVSMVGKNFKREFYGTLSKIEQLHPDLIRVHQSIIINKKYASKLNYKTHLLTMRDGTEVPVSRRYYTQVKALFLT | not soluble |
| MNPFQKIKSAVNKRQRFFINRTLQRKLTNQGMTVISANCVGAFILHDLHQPFNSPFVNLYLSPQDFLRYLQNIDFYLTQPLTFVQTEKSYPVGKLADLEIHFMHYHSEQEANEKWQLRTSRMKLDNLFIMMTDRDGVTEKDIQLFDQLPFKNKVIFTHKPYPAFKSAYYIKGFEKQNQVGDIFEFSGWNGKKYYDQFDYVKWFNHA | not soluble |
| LSDEDFRAVFGMTRSAFANLPLWRQQNLRRERGLF | soluble |
| LQMLTLEEWAAEKYRSNPPSVSTLRRYAKQNLFCPPAMKQGRLWRVREDAELVGELVTPVIKKNDSLLLQRILSNGSQTA | not soluble |
| MSLMSVVKVGVNGFGTIGRRVALAITLQKDMKLVGVVKRTPDYAALYAASRGIPIYTPTAKEAEEFEKRGIKVGGTLRELLARVDVVVDATPEGQGAKNKPLYREAGVKQVYQGGEKPEVAEASFSTLCNYEESKGRGSLRVVSCNTTGLLRLICTLNREFGVESVRAVLVRRGADPKEVKKGPIDSIVLNPPTLPSHHAVDVRTVLPWLDIKTAAVAVPTTFMHMHHVTLKLAKPVEKREVLETLASAPRIMLVSSGDTGIKSTSQLVDAARLSRMGYDIPELVVFEESVAVDGREVMLFQAVHQESIVVPENIDAIRAVASSPLTLDETLKATDGSLGLRKTLW | soluble |
| NKDNLDLAGLTSLLSEKIKEFLQEKKMQSFYQQELETVESLQSLASRPVTHSTGSDQVELKDSGTSGVAQRVFKNALQLLQEKGLVFQRDSGSDKLYYVTTKDKDLQ | soluble |
| MAGDPNSMPVLSIIACGMLEDELVHVLIRDCEIRQLIVVENNNISGFLRKLRSGGLVPRVISLDRVPMLLETGFSPGFKKISKMLMHFHFFRKMNEKIESGAGIKIDVVINLLRLGLHVDLELLKSEVYKNVREMAKFSDGILIFYGTCGHVLGGLERDFADLECPLFFLKDSSGEIVEDCISAALGGNDAYAGAMLECRGKGTIYLTPMWASSWKMLEKESGNRDLNNRYLKNSRYCLAAKIDSGLLYDPYFDRNVEDFALTFGMKIINMSGSSEVAEKSYLAARKAVLRKTAAALEHHHHHH | not soluble |
| MNIMITKKAFDWYKRELGLKPGDAIRFFARYGGCSTVQKGFSLGMAKDELVDKPAAQTTVDGITFFIEESDQWYFDGRDLTVDLDEKSDEPVFLVH | not soluble |
| SRSKQKSRRRCFQCQTKLELVQQELGSCRCGYVFCMLHRLPEQHDCTFDHMGRG | soluble |
| MKAVYPGSFDPITLGHVDIIKRALSIFDELVVLVTENPRKKCMFTLEERKKLIEEVLSDLDGVKVDVHHGLLVDYLKKHGIKVLVRGLRAVTDYEYELQMALANKKLYSDLETVFLIASEKFSFISSSLVKEVALYGGDVTEWVPPEVARALNEKLKEGKR | not soluble |
| MGSDKIHHHHHHMSPNNFDTDVCIVGGGPTGTLLAVLLGQKGHRVTILEKWPTFYERPRAVTFDHEIARILGYIGIDSENDEAIDYHSDSYDWKNAAGETLLEVDWTSMTDSGWRTRYWFYQPELEKRLRDLALTMDFVDIRCGFTAVGLSQDENSAIIHGIVTDTPENIPADAQREDIRAKYVIGADGANSFVRNSLGLEMNDLGYFFDWLILDLKPTQDIDYGTDHWQLCDPKRPTTIVPGGPGRRRWEFMALPGEDLKELASEESAWNLLEPWDVTPGKAILERSAVYRFQARWAQEWRSGRALIAGDAAHLMPPFAGEGMCAGLRDSLALAWRLDLVLSGKSDDALLDTYGEERREHVHYYIDFSMDLGNVICITDEDEARLRDERMIKELEAQDGVPVNTDVAHLGPGIWDKDSSHGGELAKQGIVEYQGRKARFDDAVGRGWAVLGLNTDPREVLDEDSLVALDAIGAIVESVGDATSAVLDVEGLYTRWLKEAGATFIITRPDFYVYSTAVDAEQLQTQIKQLSDLLHLNSVVGA | not soluble |
| MSLKTVFKPTLLAVLVAASAPVLAHSLIADTKAPSPTTKAFAAEQRNTLPFADQEDFKLVEKGLIAQQKDLEIKDANGKVVWELGNYRFLLDGLDYDSIHPSLQRQAQLNMHHGLYKVTDRIYQVRGYDLANITFVKGDTGWIVFDPLTVPATAKAALDFVNQELGERPVKAVVYSHAHADHFGGVKGIVSQEQVDRGEVPIIAPKGFLNHAVAENVLAGNAMSRRTTYQYGNVLPKGATGQVDAAIGKNVAQGEVSLIAPTKVISEQTETVVIDGVTMEFQNTPGTESPAEMNTYFPQFKALWMAENTVGGLHNVYTLRGAEVRDAKAWSKYINESIHMYAKEADVMFASHTWPRWGNDNINHFLRKQRDMYGYIHDQALRLANHGVTINEIQDEFHVPDVLAHEWYNRGYHGSYHRNAKAVINKYLGYFDMNPATLRPLAPTDAAPKYVAAMGGMDNVIKLGKEAFDKGEFRWCAEIVDKAVFAEPSNKQARYLQADCLEQLGYQSESAGERNTYLMGAYELRNGVPKVSATKTAGADTVVAMDTELFLDYLGVRLNGDKAAGIDYTINFVLPDVNEKFLVELENAHLNNLKGIQSENPDMTLTLNRAQLNQVLMGKTTIQQLAKEGKAKIEGNAQALTDIAGMLDNFEFWFNIIEPKTKEGGSHHHHHH | soluble |
| MGSDKIHHHHHHMIEVTQGSSPLVLGLPHTGTDVPAEVAQHLNDRGQALADTDWHIHDLYAGLVEGVTTVRTPIHRYVIDVNRDPEGVSLYPGQNTTTLVPLTDFDGHPIWQQEPDAAETAHRLETYHVPYHAALEAEMKRVAGLHGFAILYDCHSIRGDIPFLFEGRLPDFNVGTNLGATCAPSIEDMVFQRCQRAEGYTSVLNGRFKGGWTTRHYGRPDQGWHAIQMELAQATYCDEQPPWRYDPVRADRLRGHLTQILTDLTEWRPA | not soluble |
| MGSDKIHHHHHHMINYMIPKGFLCCGKHVGIKKRKLDLGVVYSEKLCSAAAVFTKNKFCGIPIIVGKENIKDNKLQSIVVTSGVANVATGEEGLKNTYRILNKLSCELNIKSENILPSSTGIIGKQLPIDCIITGINGIKSSLSKYNWEEFNRAIMTTDKELKIKSCKIGDATVLGIAKGSGMIEPNMATMLAYFFTDASIKAVELKGILKRAVDKSFNMISIDHDTSTSDTAAILANGYVGNVNLEVFEKTFTDMCIDMAKDIVRDGEGVSKLIEATVMGCSSFESAKVIAKSIINSPLVKIAIYGSDPNWGRIAMAIGKSFEDDVDPLKIEIAFNSNVIYDKGKIYEENFDCIERYLRDNNECKIQANLNVGDFAATVWGSDFTEDYIRINSYYTKRK | not soluble |
| MGSDKIHHHHHHMLAENLKSLYLDEWNRYVGHEFVRRMEHGDLPLENFKFYLVQDSLYVEEMLRAVMRSTELMPNDMAIRILSSVVLGRDKGMETHAFLEKELGVEKSSRMTMTTYSYTRHLRYSSTIGWPQFLAAWIPCMWGYSEIGKTVLNSPNRYYRTWAEFYASKEYADRVSVILEAMDRFNGDITEIKDYFLISLKFEQMFWQAAFDMEKPI | not soluble |
| MGLQTYNAKRSFDKTPEPKGTKAEKPGSSFVIQKHDARRLHYDFRLEMDGVLKSWAVTRGPSLDPEDKRLAVHVEDHPLSYGDFEGVIPKGQYGGGTVIVWDRGIWQPIGDAGKGYRKGHLEFELEGEKLKGRWHLVRMHGKPGESRENWLLIKGDDLEHHHHHH | not soluble |
| MGSDKIHHHHHHMGGIWMSSAKTLEEVISKISGVISAKVIEEDGQPREIHVIADPSRNPKQIVRDIETVALASLGMKIDRRIISVAQLSQGRFPSSQTYEITSIEVKNLDRKKQVKVTIHNPLEDEDMVGESAGPGTSTNLPRLVGEAVIEAFNPDCPVSVDDVQKVFLAGREFVLVHLTIQDEDRERTEVGVAPLEGDFLKSVATATLKVVKDLT | not soluble |
| MGSDKIHHHHHHMREHDEGLLNGITPDRIRDHIRALEGVRHPLAAPEALERAAGYIRETFGSLGYPVADHLFMDGGREFANIIATHTGGSKSGRRVLVVAHYDTVTTTPGADDNASGVAVLLELATILKCLRFERCLQFVAVTLEENEDEHNPRDLGTRGSRALAAHARREGWEIEGAVVLESVAYAGDAVVQRTPAGIPFTVPATGNFIGVIGNEASRGMVDRFGQAVGSREAGLPWVPLVVPGNGGLLPDSRRSDHAPFWDHGYKAIMLTDTTNFRNPHYHQPSDTLETLNLDFAVQVCRATAALLLDIAKASEP | not soluble |
| MADPPPNPSSVPPNGNLTGTPSAGNAAAVAPMAHEKDRQSKEGDEIVTKSGKKYKLGPVLGEGGYGTVFLSQDDDIKIAVIAVSCFPYIIVQNEVWFKEQKKHHVIHVVHNFSSKLLVNTTKYSRSSTVMRFNLHLITRKSTNYLWRLEKNANFVIVKTGIGKMKQSRPLSPQSLHSLIKNFAPRLTNSQKRRVLVLIFLISWSPISLPFLCTSISHHELIGINVLIKKIYVLQYFLNI | not soluble |
| MSLRTTDDLPNALPPALESMTLLVAAVIVHDQATNRVVLLQRSENAKFAQGMWDLPVGKSEPGEPITETAVRELHEETGLTVKPEALMVAHIIHGSWGVEAPNGFLTVVFATHEWTGEPENREPRKHSQVRWVDADAIPEECVDTTASALHHYLSGGAQVSLDGWLPKEGHHHHHH | soluble |
| SLSRRKPNPVIVADIRQAEGALAEIATIDRKVGEIEAQMNEAIDAAKARASQKSAPLLARRKELEDGVATFATLNKTEMFKDRKSLDLGFGTIGFRLSTQIVQMSKITKDMTLERLRQFGISEGIRIKEDVNKEAMQGWPDERLEMVGLKRRTTDAFYIEINREEVADTAA | soluble |
| MIMKVGIMSDTHDNLSAIRLAVEFFNREGVNLVLHAGDFVAPFVAKELSNLKAPLKGVFGNNDGEREGLREKLGIKDDILTLNLDGLKVVMLHGTDERVVEAFAKSQLYDIVIRGHTHKYGIQEVGRTIVVNPGEVCGYLTGIKSVALLNTTEREVRIINLKTGEILGIISLLEHHHHHH | not soluble |
| MKIVIAPDSFKESLSAEKCCQAIKAGFSTLFPDANYICLPIADGGEGTVDAMVAATGGNIVTLEVCGPMGEKVNAFYGLTGDGKTAVIEMAAASGLMLVAPEKRNPLLASSFGTGELIRHALDNDIRHIILGIGGSATVDGGMGMAQALGVRFLDADGQALAANGGNLARVASIEMDECDPRLANCHIEVACDVDNPLVGARGAAAVFGPQKGATPEMVEELEQGLQNYARVLQQQTEINVCQMAGGGAAGGMGIAAAVFLNADIKPGIEIVLNAVNLAQAVQGAALVITGEGRIDSQTAGGKAPLGVASVAKQFNVPVIGIAGVLGDGVEVVHQYGIDAVFSILPRLAPLAEVLASGETNLFNSARNIACAIKIGQGIKN | soluble |
| MGSDKIHHHHHHMQFGKTDTPEDIDFTLPKDHPDTKKILSEAKPGKHFNVYVGCAKWNKTDLKNFYPKGTKDELQYYATQFNSIELNATFYKSPSKDQVQTWKAKAAKGFKFFPKIPNTISHFKRLVGVETIVEEFCDAVVLFEENLGMSFLQMHDNFKPKDMDKLDAFLKKFPASVPLAVELRNEEWYSDKNVQDDLHAMLVKYKKTFVLVDTAARRDIMHMRLTSDKAFIRYVGANHESDYARLDDWIKRIKTWRKEGLNELYFFVHQNVELESPLLSAYFIEKMNKEFDLDLTVPQTIKKKQ | not soluble |
